{"source": "patent US12643935B2", "about": "“PD-L1 binding peptides” (UNIVERSITY OF SOUTHERN CALIFORNIA, priority 2020, dated 2026)", "assay_type_in_all_cases": "cell-based", "key": {"[1]": {"molecular_target": "T1, hPD-L1 expressed on the surface of Chinese hamster ovary (CHO) cells (CHO-hPD-L1) (Homo sapiens, UniProt Q9NZQ7)", "T1 construct": "expressed in transfected cells; host or cells: CHO", "T1 sequence (Q9NZQ7 19-290)": "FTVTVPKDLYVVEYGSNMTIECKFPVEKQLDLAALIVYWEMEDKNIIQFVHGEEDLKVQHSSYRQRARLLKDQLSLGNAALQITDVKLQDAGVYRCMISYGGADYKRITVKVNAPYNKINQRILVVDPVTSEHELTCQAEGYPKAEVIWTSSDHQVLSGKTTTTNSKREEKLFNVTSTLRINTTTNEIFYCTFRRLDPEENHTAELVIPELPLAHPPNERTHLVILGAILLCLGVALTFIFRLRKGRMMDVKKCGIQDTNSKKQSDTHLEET", "assay": "Antibody titration by flow cytometry on CHO-hPD-L1 cells", "settings": "4° C., read-out: KD of Fluorescein-labeled antibody on CHO-hPD-L1", "text": "(§1) To do this, we measured SPAM peptide inhibition of anti-PD-L1 antibody binding to hPD-L1 expressed on the surface of Chinese hamster ovary (CHO) cells (CHO-hPD-L1). […] Cells were washed again and analyzed by flow cytometry (FIG. 5B-C)."}, "[2]": {"molecular_target": "T2, CHO-mPD-L1 cells which express mPD-L1 (Mus musculus, UniProt Q9EP73)", "T2 construct": "expressed in transfected cells; host or cells: CHO", "T2 sequence (Q9EP73 19-290)": "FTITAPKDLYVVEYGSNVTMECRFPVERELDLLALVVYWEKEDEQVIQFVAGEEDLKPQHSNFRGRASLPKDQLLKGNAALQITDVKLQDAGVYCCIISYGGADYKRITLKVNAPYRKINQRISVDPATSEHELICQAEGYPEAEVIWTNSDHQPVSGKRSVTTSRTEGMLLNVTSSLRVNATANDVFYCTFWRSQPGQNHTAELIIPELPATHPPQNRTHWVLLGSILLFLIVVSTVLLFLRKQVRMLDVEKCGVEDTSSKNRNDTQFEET", "assay": "Antibody competition by flow cytometry on CHO-mPD-L1 cells", "settings": "pre-treatment 0-20 μM, 50 nM antibody", "protocol": "We performed similar experiments with CHO-mPD-L1 cells which express mPD-L1 to determine if this effect was specific to hPD-L1 expression. We have developed two cross-reactive anti-hPD-L1/mPD-L1 antibodies, 16373 and 16377. These antibodies were labeled with Fluorescein, titrated against CHO-hPD-L1 and CHO-mPD-L1 cells (FIG. 12B-C) and subjected to competition experiments as described above.\nThe cells were washed once with cold serum free DMEM and incubated with 1 nM FAM-Atezolizumab, 10 nM FAM-Avelumab, 50 nM FAM-16373, or 50 nM FAM-16377 in serum free DMEM at 4° C. for 30 min. Cells were then washed three times with cold serum free DMEM. Cells were subsequently processed by flow cytometry with a BD FACSCalibur system using the FL1 channel. FlowJo v10.1 was used to gate to the major population and median FL1 fluorescence reported."}, "[3]": {"molecular_target": "T1, hPD-L1 expressed on the surface of Chinese hamster ovary (CHO) cells (CHO-hPD-L1)", "assay": "Antibody competition by flow cytometry on CHO-hPD-L1 cells", "settings": "pre-incubation 30 min 4° C., 0-20 μM; SPAM effect at 20 μM; 1 nM Atezolizumab, 10 nM Avelumab", "text": "as §1\nCells were then washed three times with cold serum free DMEM. Cells were subsequently processed by flow cytometry with a BD FACSCalibur system using the FL1 channel. FlowJo v10.1 was used to gate to the major population and median FL1 fluorescence reported."}}, "note": "Where no end group is shown, it is not given here. [ ]: non-standard residue; d: D form. Pra = C#CC[C@H](N)C(=O)O", "data": [{"substance": "Atezolizumab: hPD-L1 specific monoclonal antibody", "values": [{"measurement": "Kd", "setting": "[1]", "result": 0.2, "unit": "nM"}]}, {"substance": "Cyclo[(AcTyr)(NMeAla)NPHL(Hyp)WS(Trp(Me))(NMeNle) (NMeNle)(Orn)C]-Gly-NH2 (XXNPHLXWSXXXXCG; N-methyl; non-natural residues; cyclised or stapled) [WL-12]", "values": [{"measurement": "blocking of Fluorescein-16373 and Fluorescein-16377 in CHO-mPD-L1 cells", "setting": "[2]", "result": "blocking was absent"}]}, {"substance": "YKLNLIHPHIFLMDWIFASG-Pra (YKLNLIHPHIFLMDWIFASG[Pra]-NH2; N-terminus assumed; SMILES C#CC[C@H](NC(=O)CNC(=O)[C@H](CO)NC(=O)[C@H](C)NC(=O)[C@H](Cc1ccccc1)NC(=O)[C@@H](NC(=O)[C@H](Cc1c[nH]c2ccccc12)NC(=O)[C@H](CC(=O)O)NC(=O)[C@H](CCSC)NC(=O)[C@H](CC(C)C)NC(=O)[C@H](Cc1ccccc1)NC(=O)[C@@H](NC(=O)[C@H](Cc1c[nH]cn1)NC(=O)[C@@H]1CCCN1C(=O)[C@H](Cc1c[nH]cn1)NC(=O)[C@@H](NC(=O)[C@H](CC(C)C)NC(=O)[C@H](CC(N)=O)NC(=O)[C@H](CC(C)C)NC(=O)[C@H](CCCCN)NC(=O)[C@@H](N)Cc1ccc(O)cc1)[C@@H](C)CC)[C@@H](C)CC)[C@@H](C)CC)C(N)=O) [SPAM-scramble, control scrambled peptide, reference compound]", "values": [{"measurement": "Fluorescein-Atezolizumab and Fluorescein-Avelumab binding to CHO-hPD-L1 after pre-incubation", "setting": "[3]", "result": "not observed"}]}]}
